Assay results as given in the supplement of paper PMC12764529.
± gives the half width of the 95% confidence interval.

Test: folding stability dG unfold (combined trypsin and chymotrypsin); higher = more stable
Procedure, shortened: (§1)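 Only designs with AlphaFold2 dimer inter-PAE above 15 were retained; each was a mini-protein under 80 residues with no cysteine, in a PA-tagged cDNA display construct. After digestion with trypsin and chymotrypsin and sequencing, K50 was inferred by Bayesian fitting of counts, and unfolding free energy was derived per protease or combined against a sequence-predicted unfolded-state K50 and a shared folded-state K50.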

Row | Sequence | folding stability dG unfold [kcal/mol]
1 | SAGGSAKMTLIIKVSPEMTKEELEELARKLAEELNVKVEIEYDEETGLATVTIEKDGKKIEIIVERSAGGSA [r15_168_TrROS_Hall] | 2.49 ± 0.12
2 | SETITLEIELPDGSKLTIEIPVEKIPGVDEYVVTVKITEYLPNGKPRSREFTFLAKSPEEAVEIALLAAGSA [r9_337_TrMRF] | 5.57 ± 0.21
3 | SAGGESYPFIGRNPETNALIEVTVTKLESGEYLVNATITNPNGETVEFPFTFPANSLTPESEIDVTITSAGG [r13_959_TrMRF] | 1.44 ± 0.054
4 | SAGGSAEVELVKVEVNPDGPYVKATFRIPGGGDVAVLVFDPDRPNTARLIVRPPNNEPIAEIELPLSAGGSA [r15_974_TrMRF] | 1.65 ± 0.2
5 | SAGGSAGGSAMVVEVPVEFPDDVKVYSVEEDPELGVLLVKVKFPDREVLAVIPGDKLFIADASAGGSAGGSA [r18_212_TrMRF] | 0.422 ± 0.052
6 | SAGGMPEKVVVLRIRVTIRRDGEEEEIELEIRLPEEGQELTEEQLLALLRELLPPGYEIRRVEIEELSAGGS [r16_407_TrROS_Hall] | 4.73 ± 0.048
7 | MTKKTVTLPIPEPIRAAIEAGKPLPLEEIVDLVRDVVAKELGFKDVKVLSVEIKPLPNGEIVVEVTVEFPES [r1_290_TrMRF] | 2.89 ± 0.23
8 | SAGMEKAINLAKEYAKKLGLPLESINVTEIGNSVIIEMKIPEKGETITVNIPIHPDGTISLNIKFEKKKSAG [r5_888_JUSTAS] | 2.09 ± 0.087
9 | SMKKPIDLIKKLGYTLTSVTKLPNGTTLITFEHPDSTVTVTVNPDGNIKITTTNPKNGTTTTTTIPVNKLSA [r9_2_JUSTAS] | 2.08 ± 0.15
10 | SAGGSAGGSAGGMTPEEIEALKARPLPDGSPILSIDREGNVYTITTARDPSVRTTVIPAESAGGSAGGSAGG [r7_995_JUSTAS] | -0.626 ± 0.54
11 | SAGGSAGGSAMKTLVIEGLSLEEIEELAKEIPGKTVRIVFKDGSVITIYPDGKIEIEPLPESAGGSAGGSAG [r3_269_TrROS_Hall] | 2.37 ± 0.054
12 | SAGKMVKVEIVIDVPPEEITEEELKAILEEEAEEVEITFDEETGKITITVTVSEEEAEKLREALKELGASAG [r5_378_TrROS_Hall] | 1.3 ± 0.26
13 | SAGGSAGGSAGGKKKKVIEIELKPGEKLTLEQIKEIAKKLNVKKVKVEKVDGKLKIVVESAGGSAGGSAGGS [r10_642_TrROS_Hall] | 0.815 ± 0.16
14 | SAGGTIYIWFPMKVDEAVDLAKELAENKDWKIEIYNGGKEHEIELDKIEPVPPENVRVYIEIEPKPDSAGGS [r16_628_TrROS] | 1.26 ± 0.097
15 | SAGSSLNILLELETPEEAEKEAARIKEEIPKKGISVTVTIVSKEELEKLLKENVIELPNGSLKLVLFPSAGG [r19_187_JUSTAS] | 0.218 ± 0.25
16 | SAGGSAGGSANVKLKIDLDPGYGYIKIKLEWEDPGTGNKQEMEITIPIPIPPPPPPPANDKKSAGGSAGGSA [r18_361_TrROS] | 1.93 ± 0.43
17 | SAGGSAGGSKKKVKVVKVEKPEGDYYVVTVYYEDGKLLKKVVFPKGVKPEEVLEKVKKLVEEESAGGSAGGS [r12_798_TrMRF] | 2.51 ± 0.076
18 | SAGGSAGGSAGGKIENWKITKVETKLHPNGFPYLVIELSNEKKKIRVLIYPNGELKAFEESAGGSAGGSAGG [r7_675_TrMRF] | 3.82 ± 0.31
19 | SAGGSAGGSMVPGKLLVTITDPNNGLTTTLDLPLEVKTEEDIEAEVQKIKEENPGKKVSVKLLSAGGSAGGS [r12_65_JUSTAS] | 1.69 ± 0.054
20 | SAGITILFNSAEDAENFAEELAEDYPNMNVTIKIHDPEHGEPVEIPVKIPPPPPKPKRDPDNGNKKYEGSAG [r5_870_TrROS] | 0.286 ± 0.13
21 | SAGGSAGGSAGGPKLVLKIKTEIKIEKKLEFDPETGELTEEIEIEIKIEIELEPLPEGLSAGGSAGGSAGGS [r10_376_TrROS_Hall] | 2.83 ± 0.96

Test: folding stability dG unfold from chymotrypsin proteolysis; higher = more stable
Procedure, shortened: as §1

Row | Sequence | folding stability dG unfold [kcal/mol]
22 | DWLIRIKFTYKGPDGNKHEMKIIVRVPESPEQAKEEVEDIARMIMEEQGYPPENIKKIKVEVIPPGEELTPS [r1_159_TrROS] | 4.203 ± 0.041
23 | SAGEKVEITLVVKVEKDEDGRYRLTEEELREIAKALGLDFEVKSVEIERVPGYLVIRVTVDGKEYEFLSAGG [r19_398_TrROS_Hall] | 3.04 ± 0.033
24 | SAGGSAGGSAGGSSTSLIGNSTVTVDPVYVTDTGERGFVISADVPPSVSEAVVEAHVASSAGGSAGGSAGGS [r10_531_JUSTAS] | 0.0382 ± 0.022
25 | SAGGSAKTKTITLKIKIVDPKTNKVYEFEIKIEVELTLDKNGKLTAKIKKIEIKAPKNSPLLKKLLSAGGSA [r15_258_TrROS_Hall] | 3.18 ± 0.041
26 | SAGGMEIKIEKEGNKIKITIKNENGEIEEFEITLKDGKKYRIIIDKDNPNTIYIVDEKTGKTIVLKASAGGS [r16_198_TrROS_Hall] | 4.55 ± 0.11
27 | SAMPIESVEFHPEEGVITLRFRAPAHPDAEKFEIEVVVDGAEAGEIEVEVDPETNEVRALVRVKIPKGASAG [r14_244_TrMRF] | 4.23 ± 0.059
28 | SAGGSAPKIRVEIEIDPDNGTIKLEVQHDGKPVFEMTMRIDPNGKIKEMKFTFYVDPDNGKLEIMMSAGGSA [r15_770_TrROS] | 4.59 ± 0.26
29 | SAGGSAGGSMPVVVEPTTIGDIEVTRVVLPDGTVVVYTKAPTTLKVTYRPLATGEEEEEVFPELSAGGSAGG [r6_555_JUSTAS] | 0.829 ± 0.11
30 | SAGGLEIEVFNEKGEPVEVRLRRKEDDTLELEVRFRDASGREYRARATVRVKETEIELGEVDEWEELESAGG [r13_451_TrMRF] | 1.84 ± 0.082
31 | SSYTVLEEKVESDPNKDSLTYLTLKTPDGRELTVTEPVKKVDDSWITNSTLTDPVGGRTTTSTTTVKLSGSA [r9_269_JUSTAS] | -0.409 ± 0.17
